Measurements published in PMC10559304 (Molecular Biology of the Cell, 2023).
Where two headings read alike, the source gives them in different places.

Assays:
[1] = target: Taxol-stabilized microtubules of unlabeled, Alexa 647-labeled and biotinylated tubulin (50:2:1.5) (not stated (Pork or Bovine brains)); experiment: single-molecule TIRF microscopy motility assay
[2] = target: D. melanogaster KLP61F extended bipolar assembly domain (BASS-XL) minifilament (D. melanogaster) (UniProt P46863); experiment: crystal structure
[3] = target: GMPCPP-polymerized, Taxol-stabilized microtubules of the crosslinking and sliding assay (surface-immobilized HiLyte 647/biotin MTs and free rhodamine MTs); experiment: MT crosslinking and sliding assay by three-colour TIRF microscopy
mass photometry = target: the molecule itself; experiment: mass photometry
[4] = target: microtubules of biotin- and Alexa-Fluor-633-labeled porcine tubulin, polymerized with GMPCPP or Paclitaxel (porcine); experiment: single-molecule TIRF microscopy motility assay
[5] = target: microtubules of biotin- and Alexa-Fluor-633-labeled porcine tubulin, polymerized with GMPCPP or Paclitaxel (porcine); experiment: single-molecule TIRF microscopy motility assay; remark: listed apart in the source
[6] = target: the molecule itself; experiment: single-molecule TIRF microscopy, Neon Green spot intensities
[7] = target: microtubules of biotin- and Alexa-Fluor-633-labeled porcine tubulin, polymerized with GMPCPP or Paclitaxel (porcine); experiment: single-molecule TIRF microscopy motility assay; remark: listed apart in the source
[8] = target: microtubules of biotin- and Alexa-Fluor-633-labeled porcine tubulin, polymerized with GMPCPP or Paclitaxel (porcine); experiment: single-molecule TIRF microscopy motility assay; remark: listed apart in the source
[9] = target: microtubules of biotin- and Alexa-Fluor-633-labeled porcine tubulin, polymerized with GMPCPP or Paclitaxel (porcine); experiment: single-molecule TIRF microscopy motility assay; remark: listed apart in the source

percent of surface-immobilized MTs crosslinked to free MTs [3] [%] | MT plus-end dwell time [4] [s] | MT plus-end dwell time [5] [s] | Molecule | stoichiometry N (mass photometry) | other results
 |  |  | human Eg5 kinesin-5 minitetramer without tail, labeled with Tetra-methyl Rhodamine (from UniProt P52732;P46863) |  | lifetime at MT plus-ends, long population (Weibull a2) [1]: 140 s; lifetime at MT plus-ends, short population (Weibull a1) [1]: 14.6 s
 |  |  | D. melanogaster KLP61F extended bipolar assembly domain (BASS-XL) minifilament (from UniProt P46863 597-833) (domain or fragment) |  | stoichiometry N [2]: 4
54 |  |  | full-length human kinesin-5 (Eg5) without the tail, GFP fusion (domain or fragment) |  | 
2 | 78 | 25 | D. melanogaster KLP61F kinesin-5 minitetramer without tail, fused to Neon Green (other) MDISGGNTSRQPQKKSNQNIQVYVRVRPLNSRERCIRSAEVVDVVGPREVVTRHTLDSKLTKKFTFDRSFGPESKQCDVYSVVVSPLIEEVLNGYNCTVFAYGQTGTGKTHTMVGNETAELKSSWEDDSDIGIIPRALSHLFDELRMMEVEYTMRISYLELYNEELCDLLSTDDTTKIRIFDDSTKKGSVIIQGLEEIPVHSKDDVYKLLEKGKERRKTATTLMNAQSSRSHTVFSIVVHIRENGIEGEDMLKIGKLNLVDLAGSENVSKAGNEKGIRVRETVNINQSLLTLGRVITALVDRAPHVPYRESKLTRLLQESLGGRTKTSIIATISPGHKDIEETLSTLEYAHRAKNIQNKPEVNQKLTKKAQSLQDQTNLHNKLIGEVMKISDQHSQAFVAKLMEQMQQQQLLMSKEIQTNLQVIEENNQRHKAMLDSMQEKFATIIDSSLQSVEEHAKQMHKKLEQLGAMSLPDAEELQNLQEELANERALAQQEDALLESMMMQMEQIKNLRSKNSISMSVHLNKMEESRLTRNHRIDDIKSGIQDYQKLGIEASQSAQAELTSQMEAGMLCLDQGVANCSMLQVHMKNLNQKYEKETNENVGSV | 4 | 
24 | 117 | 267 | D. melanogaster KLP61F kinesin-5 minitetramer with tail, fused to Neon Green (other) MDISGGNTSRQPQKKSNQNIQVYVRVRPLNSRERCIRSAEVVDVVGPREVVTRHTLDSKLTKKFTFDRSFGPESKQCDVYSVVVSPLIEEVLNGYNCTVFAYGQTGTGKTHTMVGNETAELKSSWEDDSDIGIIPRALSHLFDELRMMEVEYTMRISYLELYNEELCDLLSTDDTTKIRIFDDSTKKGSVIIQGLEEIPVHSKDDVYKLLEKGKERRKTATTLMNAQSSRSHTVFSIVVHIRENGIEGEDMLKIGKLNLVDLAGSENVSKAGNEKGIRVRETVNINQSLLTLGRVITALVDRAPHVPYRESKLTRLLQESLGGRTKTSIIATISPGHKDIEETLSTLEYAHRAKNIQNKPEVNQKLTKKAQSLQDQTNLHNKLIGEVMKISDQHSQAFVAKLMEQMQQQQLLMSKEIQTNLQVIEENNQRHKAMLDSMQEKFATIIDSSLQSVEEHAKQMHKKLEQLGAMSLPDAEELQNLQEELANERALAQQEDALLESMMMQMEQIKNLRSKNSISMSVHLNKMEESRLTRNHRIDDIKSGIQDYQKLGIEASQSAQAELTSQMEAGMLCLDQGVANCSMLQVHMKNLNQKYEKETNENVGSVQICEQELVRFQQSELKTYAPTGTTPSKRDFVYPRTLVATSPHQEIVRRYRQELDWSDLDTTATIDECSEGEHDVSMHSVQELSETETIMNSTPIEPVDGVTVKRGCGTTRNSNSNALKPPVATGGKRSSSLSRSLTPSKTSPRGSPAFVRHNKENVA | 4 | stoichiometry N [6]: 5 to 10 motors per cluster; MT plus-end dwell time [7]: 125 s; MT plus-end dwell time [8]: 147 s; MT plus-end dwell time [9]: 25 s
